From patent publication US20140134177A1 (ONCOMED PHARMACEUTICALS, published 2014) come the findings set out here.

B2: RSPO1-CD4TM (ligand)
chain: SRGIKGKRQRRISAEGSQACAKGCELCSEVNGCLKCSPKLFILLERNDIRQVGVCLPSCPPGYFDARNPDMNKCIKCKIEHCEACFSHNFCTKCKEGLYLHKGRCYPACPEGSSAANGTMECSSPAQCEMSEWSPWGPCSKKQQLCGFRRGSEERTRRVLHAPVGDHAACSDTKETRRCTVRRVPCPEGQKRRKGGQGRRENANRNLARKESKEAGAGSRRRKGQQQQQQQGTVGPLTSAGPAMALIVLGGVAGLLLFIGLGIFF
notes: domain: transmembrane domain; also called cell-surface RSPO1; RSPO1 transfected cells

The target of the test “RSPO1-CD4TM” is B2. Nature of the test: FACS, Fc fusion on HEK 293 cells with RSPO1-CD4TM. The protocol:
(§1) FIG. 7. RSPO1 Activates Beta-Catenin Signaling via Binding to LGR5. A) HEK 293 cells transiently transfected with RSPO1-CD4TM and GFP were incubated with LGR5-Fc, LRP6FL-Fc, LRP6E1-2-Fc, or FZD1-10-Fc as indicated. […] B) HEK 293 cells transiently transfected with […] and GFP were incubated in the presence of heparin with (in duplicate) RSPO1-Fc (top), FZD8-Fc (middle), or a FLAG antibody as a positive control (bottom). […] HEK 293 cells transiently transfected with FLAG-LGR5-CD4TM and GFP were incubated in the presence of heparin with RSPO1-Fc, RSPO2-Fc, RSPO3-Fc, RSPO4-Fc, FZD8-Fc, or a FLAG antibody as a positive control as indicated.
(§2) To determine the mechanism by which RSPO1 activates beta-catenin signaling, FACS analysis was used to assess binding between RSPO1 and LGR5. In certain embodiments, binding between soluble LGR5 and cell-surface RSPO1 was determined. A cell-surface RSPO1 protein was generated by ligating full-length human RSPO1 to the transmembrane domain of CD4 using standard recombinant DNA techniques (RSPO1-CD4TM). HEK 293 cells were transiently transfected RSPO1-CD4TM and GFP. After 48 hours, cells were suspended in ice cold PBS containing 2% FCS and then incubated on ice in the presence of LGR5-Fc, LRP6-ECD-Fc (containing the extracellular domain of human LRP6 fused to an Fc domain), LRP6E1-2-Fc (containing amino acids 1-629 of human LRP6 fused to an Fc domain), or various FZD-Fc constructs, including FZD1-10. […] Only a weak interaction between RSPO1 and the WNT co-receptor LRP6 was detected.

The next test deals with FZD7-Fc (UniProt O75084 33-170). Nature of the test: FACS, Fc fusion on HEK 293 cells with RSPO1-CD4TM. The protocol: as §1, §2
A further test concerns the target T1, FZD1-Fc (UniProt Q9UP38 87-237).
T1 construct: also called FZD1-10-Fc; FZD-Fc constructs; not shown: Fc
Description: FACS, Fc fusion on HEK 293 cells with RSPO1-CD4TM. The method, then: as §1, §2

Another test concerns the target FZD2-Fc (UniProt Q14332 24-159). Nature of the test: FACS, Fc fusion on HEK 293 cells with RSPO1-CD4TM. The protocol:
as §1, §2
On the technique in general: A flow cytometer gives signals particle by particle.

The next test concerns the target T2, FLAG-LGR5-CD4TM (human, UniProt P01730 397-418, limits assumed).
T2 construct: domain: transmembrane domain; also called cell-surface LGR5; LGR5 transfected cells; not shown: N-terminal FLAG tag
Nature of the test: FACS, Fc fusion on HEK 293 cells with FLAG-LGR5-CD4TM, with heparin. The protocol: In certain embodiments, binding between soluble RSPO1 and cell-surface LGR5 was determined. A variant cell-surface LGR5 protein was generated by ligating amino acids 22-564 of LGR5 to an N-terminal FLAG tag and to the transmembrane domain of CD4 using standard recombinant DNA techniques (FLAG-LGR5-CD4TM). HEK 293 cells were transiently transfected with FLAG-LGR5-CD4TM and GFP. After 48 hours, cells were suspended in ice cold PBS containing 2% FCS and heparin and then incubated on ice in the presence of RSPO1-Fc, FZD8-Fc, or a FLAG antibody as a positive control.

B1: FZD3-Fc (Fc fusion, UniProt Q9NPG1 23-143, looked up)
chain: HSLFSCEPITLRMCQDLPYNTTFMPNLLNHYDQQTAALAMEPFHPMVNLDCSRDFRPFLCALYAPICMEYGRVTLPCRRLCQRAYSECSKLMEMFGVPWPEDMECSRFPDCDEPYPRLVDL
notes: also called FZD1-10-Fc; FZD-Fc constructs; not shown: Fc
As to B1, the binding result with RSPO1-CD4TM is “no binding”.
As to B2, the binding result in the test with FZD7-Fc, with FZD1-Fc and in the test with FZD2-Fc was “no binding” throughout.

B3: FZD8-Fc (Fc fusion, UniProt Q9H461 28-158, looked up)
chain: ASAKELACQEITVPLCKGIGYNYTYMPNQFNHDTQDEAGLEVHQFWPLVEIQCSPDLKFFLCSMYTPICLEDYKKPLPPCRSVCERAKAGCAPLMRQYGFAWPDRMRCDRLPEQGNPDTLCMDYNRTDLTT
notes: also called soluble FZD8; FZD1-10-Fc; not shown: Fc
In the case of B3, the binding result with RSPO1-CD4TM and with FLAG-LGR5-CD4TM was “no binding” throughout.

B4: FZD6-Fc (Fc fusion, UniProt O60353 19-146, looked up)
chain: HSLFTCEPITVPRCMKMAYNMTFFPNLMGHYDQSIAAVEMEHFLPLANLECSPNIETFLCKAFVPTCIEQIHVVPPCRKLCEKVYSDCKKLIDTFGIRWPEELECDRLQYCDETVPVTFDPHTEFLGP
notes: as for B1
As to B4, the binding result with RSPO1-CD4TM is recorded as “no binding”.

B5: FZD9-Fc (Fc fusion, UniProt O00144 23-159, looked up)
chain: LEIGRFDPERGRGAAPCQAVEIPMCRGIGYNLTRMPNLLGHTSQGEAAAELAEFAPLVQYGCHSHLRFFLCSLYAPMCTDQVSTPIPACRPMCEQARLRCAPIMEQFNFGWPDSLDCARLPTRNDPHALCMEAPENA
notes: as for B1
Take B5: the binding result with RSPO1-CD4TM is listed as “no binding”.

B6: FZD10-Fc (Fc fusion, UniProt Q9ULW2 21-154, looked up)
chain: ISSMDMERPGDGKCQPIEIPMCKDIGYNMTRMPNLMGHENQREAAIQLHEFAPLVEYGCHGHLRFFLCSLYAPMCTEQVSTPIPACRVMCEQARLKCSPIMEQFNFKWPDSLDCRKLPNKNDPNYLCMEAPNNG
notes: also called soluble FZD10; FZD1-10-Fc; not shown: Fc
Regarding B6, the binding result with RSPO1-CD4TM was “no binding”.

B7: FZD5-Fc (Fc fusion, UniProt Q13467 27-157, looked up)
chain: ASKAPVCQEITVPMCRGIGYNLTHMPNQFNHDTQDEAGLEVHQFWPLVEIQCSPDLRFFLCSMYTPICLPDYHKPLPPCRSVCERAKAGCSPLMRQYGFAWPERMSCDRLPVLGRDAEVLCMDYNRSEATT
notes: as for B1
For the molecule B7, in the test with RSPO1-CD4TM, the binding result was “no binding”.

B8: FZD4-Fc (Fc fusion, UniProt Q9ULV1 40-170, looked up)
chain: EEERRCDPIRISMCQNLGYNVTKMPNLVGHELQTDAELQLTTFTPLIQYGCSSQLQFFLCSVYVPMCTEKINIPIGPCGGMCLSVKRRCEPVLKEFGFAWPESLNCSKFPPQNDHNHMCMEGPGDEEVPLP
notes: as for B1
Take B8: the binding result with RSPO1-CD4TM is “no binding”.
